From paper PMC7394266

What was measured:
[1] = biological target: PD-L1 IgV-TIM-3 chimera with K124S in the PD-L1 IgV domain, on transfected COS cells (human) (UniProt Q9NZQ7); assay: flow cytometry on cells
[2] = biological target: PD-L1 IgV-TIM-3 chimera with M115A in the PD-L1 IgV domain, on transfected COS cells (human) (UniProt Q9NZQ7); assay: flow cytometry on cells

Substance: human B7–1-hIgG1 recombinant fusion protein (from UniProt P33681 35-242) (Fc fusion)
- percent decrease in binding against the unmutated chimera [1]: 80%
- percent decrease in binding against the unmutated chimera [2]: 80%
